{"source": "the supplement of paper PMC7125110", "parents": {"B1": {"name": "glmS ribozyme (parent)", "chain": "AUAAAAGCGCCAGAACUACAGAAAUGUAGUUGACGAGGAGGAGGUUUAUCGAAUUUUCGGCGGAUGCCUCCAAA"}}, "note": "± gives the standard error. Variants at the floor of the assay were thinned out.", "data": [{"variants_of": "B1", "experiment": "self-cleavage kobs at 2500 uM GlcN6P; higher = faster cleavage; RNA array", "settings": "with glucosamine-6-phosphate", "summary_of_the_method": "(§1)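 A hybridised Cy3 probe tracked barcoded ribozyme variants, transcribed in situ by E. coli RNA polymerase on sequenced MiSeq chips, at 37 °C. The variants received 40 μM to 10 mM glucosamine-6-phosphate in HEPES/KCl/Mg(OAc)2 buffer. kobs came from decay fits and kcat and KM from weighted Michaelis–Menten fits.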", "units": {"self-cleavage kobs at 2500 uM GlcN6P": "s⁻¹"}, "values": [{"variant": "C11G G13U G29C", "self-cleavage kobs at 2500 uM GlcN6P": "< 1e-05"}, {"variant": "C11U C34G A52U", "self-cleavage kobs at 2500 uM GlcN6P": "< 1e-05"}, {"variant": "C8U G9C C11G A14C U45G C50G C71G", "self-cleavage kobs at 2500 uM GlcN6P": "< 1e-05"}, {"variant": "G37A A39C G40C G41A U45C G51U C58G", "self-cleavage kobs at 2500 uM GlcN6P": "< 1e-05"}, {"variant": "G13U G35A U57A U65G", "self-cleavage kobs at 2500 uM GlcN6P": "< 1e-05"}, {"variant": "U54G C58G A64G C71U", "self-cleavage kobs at 2500 uM GlcN6P": "5.26e-05 ± 2.3e-05"}, {"variant": "C8U C16G G29C", "self-cleavage kobs at 2500 uM GlcN6P": "< 1e-05"}, {"variant": "G29C A33G A53U A64G U69G", "self-cleavage kobs at 2500 uM GlcN6P": "0.000129 ± 4.1e-05"}, {"variant": "U55G C70U C71G", "self-cleavage kobs at 2500 uM GlcN6P": "7.27e-05 ± 1.7e-05"}, {"variant": "U49C C50U U56G", "self-cleavage kobs at 2500 uM GlcN6P": "< 1e-05"}, {"variant": "C10A A12C G51U", "self-cleavage kobs at 2500 uM GlcN6P": "< 1e-05"}, {"variant": "G32C A36C A39U U69G", "self-cleavage kobs at 2500 uM GlcN6P": "< 1e-05"}, {"variant": "C34U A39C C68U", "self-cleavage kobs at 2500 uM GlcN6P": "< 1e-05"}, {"variant": "A33C G35A U56A", "self-cleavage kobs at 2500 uM GlcN6P": "< 1e-05"}, {"variant": "G7U U31C G32C G35C A36C C71U", "self-cleavage kobs at 2500 uM GlcN6P": "< 1e-05"}, {"variant": "C11A C16U U54G G59A", "self-cleavage kobs at 2500 uM GlcN6P": "0.000138 ± 3e-05"}, {"variant": "G37A G38C U56G C70G", "self-cleavage kobs at 2500 uM GlcN6P": "6.06e-05 ± 1.5e-05"}, {"variant": "U45G A52U G63C", "self-cleavage kobs at 2500 uM GlcN6P": "< 1e-05"}, {"variant": "A15C A42G C67U", "self-cleavage kobs at 2500 uM GlcN6P": "0.000389 ± 9.9e-05"}, {"variant": "A12U G38U U49A", "self-cleavage kobs at 2500 uM GlcN6P": "< 1e-05"}, {"variant": "C8A G41C C58U", "self-cleavage kobs at 2500 uM GlcN6P": "< 1e-05"}, {"variant": "A14G A33G A36U A42U U46A", "self-cleavage kobs at 2500 uM GlcN6P": "< 1e-05"}, {"variant": "G13C G59A G66A C68U", "self-cleavage kobs at 2500 uM GlcN6P": "< 1e-05"}, {"variant": "C11A G21U", "self-cleavage kobs at 2500 uM GlcN6P": "9.85e-05 ± 2.9e-05"}, {"variant": "G32U G41C G59A", "self-cleavage kobs at 2500 uM GlcN6P": "< 1e-05"}, {"variant": "C10A C11G G40U C50G A52U", "self-cleavage kobs at 2500 uM GlcN6P": "< 1e-05"}, {"variant": "G32U U46C", "self-cleavage kobs at 2500 uM GlcN6P": "3.86e-05 ± 1.4e-05"}, {"variant": "G7U G32C G40U U45G", "self-cleavage kobs at 2500 uM GlcN6P": "< 1e-05"}, {"variant": "A15C G35U C70G", "self-cleavage kobs at 2500 uM GlcN6P": "< 1e-05"}, {"variant": "A33G C34A U46A C61A", "self-cleavage kobs at 2500 uM GlcN6P": "< 1e-05"}, {"variant": "G13U G38A U55A A64U", "self-cleavage kobs at 2500 uM GlcN6P": "< 1e-05"}, {"variant": "U31G G44C G59C", "self-cleavage kobs at 2500 uM GlcN6P": "< 1e-05"}, {"variant": "G37C U55A A64G", "self-cleavage kobs at 2500 uM GlcN6P": "4.29e-05 ± 1.2e-05"}, {"variant": "A33U C67A U69A", "self-cleavage kobs at 2500 uM GlcN6P": "< 1e-05"}, {"variant": "G38U G41U C50G C68G", "self-cleavage kobs at 2500 uM GlcN6P": "< 1e-05"}, {"variant": "U47C C58A C68U", "self-cleavage kobs at 2500 uM GlcN6P": "3.93e-05 ± 1.6e-05"}, {"variant": "G7A G13A U30C C34U C70U", "self-cleavage kobs at 2500 uM GlcN6P": "< 1e-05"}, {"variant": "A15C U30A U31C A48U", "self-cleavage kobs at 2500 uM GlcN6P": "7.36e-05 ± 3e-05"}, {"variant": "A12U U30A G37A G59U", "self-cleavage kobs at 2500 uM GlcN6P": "< 1e-05"}, {"variant": "A6G A33G A42U G60U", "self-cleavage kobs at 2500 uM GlcN6P": "< 1e-05"}, {"variant": "U55A U56A A64G", "self-cleavage kobs at 2500 uM GlcN6P": "0.0035 ± 0.00087"}, {"variant": "A39C G43U A48U G51U", "self-cleavage kobs at 2500 uM GlcN6P": "< 1e-05"}, {"variant": "A14G G43C U57C", "self-cleavage kobs at 2500 uM GlcN6P": "< 1e-05"}, {"variant": "A14U G51C A64G", "self-cleavage kobs at 2500 uM GlcN6P": "< 1e-05"}, {"variant": "A6C U55G C71U", "self-cleavage kobs at 2500 uM GlcN6P": "6.13e-05 ± 2e-05"}, {"variant": "G37A G40A U56G", "self-cleavage kobs at 2500 uM GlcN6P": "5.62e-05 ± 1.8e-05"}, {"variant": "C11G G13C C50A A53G U55A", "self-cleavage kobs at 2500 uM GlcN6P": "< 1e-05"}, {"variant": "G35U U54C C58A", "self-cleavage kobs at 2500 uM GlcN6P": "< 1e-05"}, {"variant": "G35C A48G A53U", "self-cleavage kobs at 2500 uM GlcN6P": "< 1e-05"}, {"variant": "G13U U31G G37C A48C", "self-cleavage kobs at 2500 uM GlcN6P": "< 1e-05"}, {"variant": "G7A G9U", "self-cleavage kobs at 2500 uM GlcN6P": "< 1e-05"}, {"variant": "C8U G13U A39U A42G", "self-cleavage kobs at 2500 uM GlcN6P": "< 1e-05"}, {"variant": "A6C G9U C70A", "self-cleavage kobs at 2500 uM GlcN6P": "< 1e-05"}, {"variant": "C34U G35A", "self-cleavage kobs at 2500 uM GlcN6P": "< 1e-05"}, {"variant": "G32A A39U U56A", "self-cleavage kobs at 2500 uM GlcN6P": "5.98e-05 ± 1.5e-05"}, {"variant": "G32U G41A C58U", "self-cleavage kobs at 2500 uM GlcN6P": "9.05e-05 ± 2.6e-05"}, {"variant": "G29A G35U A42G A52U", "self-cleavage kobs at 2500 uM GlcN6P": "< 1e-05"}, {"variant": "G9A C34A U49G", "self-cleavage kobs at 2500 uM GlcN6P": "< 1e-05"}, {"variant": "G29U A33C G44C", "self-cleavage kobs at 2500 uM GlcN6P": "0.000325 ± 0.00014"}, {"variant": "G29C G51U C67G", "self-cleavage kobs at 2500 uM GlcN6P": "5.96e-05 ± 2.8e-05"}, {"variant": "G7A A39C G59C C70U", "self-cleavage kobs at 2500 uM GlcN6P": "< 1e-05"}, {"variant": "G13C A15U G41U A42G G43C", "self-cleavage kobs at 2500 uM GlcN6P": "< 1e-05"}, {"variant": "A14C U30G A42G A53C", "self-cleavage kobs at 2500 uM GlcN6P": "7.92e-05 ± 2.7e-05"}, {"variant": "C34A A48U C68A C71G", "self-cleavage kobs at 2500 uM GlcN6P": "< 1e-05"}, {"variant": "G35U U49C C50U C58G C61U", "self-cleavage kobs at 2500 uM GlcN6P": "< 1e-05"}, {"variant": "A39C G41C G66U", "self-cleavage kobs at 2500 uM GlcN6P": "< 1e-05"}, {"variant": "A39C U47A G66C", "self-cleavage kobs at 2500 uM GlcN6P": "0.000411 ± 8.5e-05"}, {"variant": "A39G A53C C70A", "self-cleavage kobs at 2500 uM GlcN6P": "0.000143 ± 4.2e-05"}, {"variant": "G13C C71U", "self-cleavage kobs at 2500 uM GlcN6P": "9.01e-05 ± 1.5e-05"}, {"variant": "G37C C50U U69G", "self-cleavage kobs at 2500 uM GlcN6P": "6.01e-05 ± 2.6e-05"}, {"variant": "A36C G41A U56G G60A C68U", "self-cleavage kobs at 2500 uM GlcN6P": "< 1e-05"}, {"variant": "U49C U57G", "self-cleavage kobs at 2500 uM GlcN6P": "< 1e-05"}, {"variant": "G13C G40A G60U", "self-cleavage kobs at 2500 uM GlcN6P": "< 1e-05"}, {"variant": "G9A A14G G41U", "self-cleavage kobs at 2500 uM GlcN6P": "< 1e-05"}]}, {"variants_of": "B1", "experiment": "self-cleavage kobs at 10000 uM GlcN6P; higher = faster cleavage; RNA array", "settings": "with glucosamine-6-phosphate", "summary_of_the_method": "as §1", "units": {"self-cleavage kobs at 10000 uM GlcN6P": "s⁻¹"}, "values": [{"variant": "C11U C34G A52U", "self-cleavage kobs at 10000 uM GlcN6P": "< 1e-05"}, {"variant": "G13U G35A U57A U65G", "self-cleavage kobs at 10000 uM GlcN6P": "< 1e-05"}, {"variant": "U54G C58G A64G C71U", "self-cleavage kobs at 10000 uM GlcN6P": "4.18e-05 ± 1.4e-05"}, {"variant": "U55G C70U C71G", "self-cleavage kobs at 10000 uM GlcN6P": "0.000142 ± 3.8e-05"}, {"variant": "G32C A36C A39U U69G", "self-cleavage kobs at 10000 uM GlcN6P": "< 1e-05"}, {"variant": "C11A G21U", "self-cleavage kobs at 10000 uM GlcN6P": "0.000164 ± 3.4e-05"}, {"variant": "G32U U46C", "self-cleavage kobs at 10000 uM GlcN6P": "0.000136 ± 1.8e-05"}, {"variant": "G37C U55A A64G", "self-cleavage kobs at 10000 uM GlcN6P": "6.99e-05 ± 1.4e-05"}, {"variant": "A6C G9U C70A", "self-cleavage kobs at 10000 uM GlcN6P": "< 1e-05"}, {"variant": "C34U G35A", "self-cleavage kobs at 10000 uM GlcN6P": "< 1e-05"}, {"variant": "C34A A48U C68A C71G", "self-cleavage kobs at 10000 uM GlcN6P": "< 1e-05"}, {"variant": "A39G A53C C70A", "self-cleavage kobs at 10000 uM GlcN6P": "0.000165 ± 4.3e-05"}, {"variant": "G13C C71U", "self-cleavage kobs at 10000 uM GlcN6P": "0.000149 ± 1.6e-05"}, {"variant": "A36C G41A U56G G60A C68U", "self-cleavage kobs at 10000 uM GlcN6P": "< 1e-05"}, {"variant": "U49C U57G", "self-cleavage kobs at 10000 uM GlcN6P": "< 1e-05"}]}]}
